Measured values: the nanobody polyreactivity screen of Harvey et al. (2022)

Test: yeast display, Sf9 membrane polyspecificity reagent, FACS + sequencing; frameworks hold sequencing errors
How it was run: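 Galactose-induced (36–48 hours) yeast carrying a synthetic nanobody display library were exposed to 10% biotinylated, detergent-solubilized Sf9 membrane reagent at 4 °C for 1 hour. FACS followed streptavidin microbead enrichment, using low and high (top ~1%) gates for expression (anti-HA) and reagent binding (streptavidin). Colony PCR, MiSeq 2 × 250 sequencing and CDR-length filtering followed. Labels for polyreactivity reflect the gate of origin.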

Row | Sequence | polyreactivity (PSR sort gate)
1 | QVQLVESGGGLVQAGGSLRLSCAASGYIFDRYAMGWYRQAPGKERELVAAISGRGGSTYYADSVKGRFTISRDNAKNTVYLQMNSLKPEETAVYYCARDVYVRNGQRARYDSWGQGTQVTVSS | high polyreactivity
2 | QVQLVESGGGLVQAGGSLRLSCAASGYIFDVNTMGWYRQAPGKERELFAAITSGGTTYYADSVKGRFTISRDNAKNTVYLQMNSLKPEDTAVYYCAARRYPFEYDYWGQGTQVTVSS | high polyreactivity
3 | QVQLVESGGGLVQAGGSLRLSCAASGYIFERNALGWYRQAPGKERELVAAINWRTGRTYYADSVKGRFTISRDYAKYNVYLQMNSLKPEDTAVYYCAKEHSTYWAQPTYSYDNWGQGTQVTVSS | low polyreactivity
4 | QVQLVESGGGLVQAGGSLRLSCAASGYIFERNAMGWYRQAPGKERELVAAITDDGDDTYYADSVKGRFTISRDNAKNTVYLQMNSLKAEDTAVYYCAKDLYYGDYYYWGQGTQVTVSS | low polyreactivity
5 | QVQLVESGGGLVQAGGSLRLSCAASGYIFEVNAMGWYRQAPGKERELVATIDTSSGSTNYADSVKGRFTISRDNAKNTVYLQMNSLKPEDTAVYYCAADDETVFLQDDYWGQGTQVTVSS | low polyreactivity
6 | QVQLVESGGGLVQAGGSLRLSCAASGYIFFFYAMGWYRQAPGKERELVASITYRGGSTYYADSVKGRFTISRDNSKNTVYLQMNSLKPEDTAVYYCAADVRASRFDYWGQGTQVTVSS | low polyreactivity
7 | QVQLVESGGGLVQAGGSLRLSCAASGYIFFGNAMGWYRQAPGKERELVAAIRWRGTSTYYADSVKGRFTISRDNAKNTVYLQMNSLKPEDTAVYYCARLRTVGGYSKYDYWGQGSQVTVSS | low polyreactivity
8 | QVQLVESGGGLVQAGGSLRLSCAASGYIFGGNTLGWYRQAPGKERELVAAISYSGTSTYYADSVKGRFTISRDNAKNTVYLQMNSLKPEDTAVYYCAARERWYGSYYWGQGTQVTVSS | high polyreactivity
9 | QVQLVESGGGLVQAGGSLRLSCAASGYIFGHYAMGWYRQAPGKERELVAGITWRGGSTYYADSVKGRFTISRDNAKNTVYLQMNSLKPEDTAVYYCNAQYTQRWPYGLYYEMDYWGQGTQVTVSS | low polyreactivity
10 | QVQLVESGGGLVQAGGSLRLSCAASGYIFGHYTMGWYRQAPGKERELVAGISSGGITYYADSVKGRFTISRDNAKNSDYLQMNSLKPEDTAVYYCAAYWRRRLDYYYWGQGTQVTVSS | high polyreactivity
11 | QVQLVESGGGLVQAGGSLRLSCAASGYIFGNYAMGWYRQAPGKERELVAAISKSGVTTYYADSVKGRFTISRDNAKNTVYLQMNSLKPEDTAVYYCNARSWRPINARYNEYDYWGQGTQVTVSS | low polyreactivity
12 | QVQLVESGGGLVQAGGSLRLSCAASGYIFGVYAMGWYRQAPGKERELVAVITVTGGSTYYADSVKGRFTISRDNAKNTVYLQMNSLKPEDTAVYYCAARGYGNLARVYHGYGYWGQGTQVTVSS | high polyreactivity
13 | QVQLVESGGGLVQAGGSLRLSCAASGYIFGYNAMGWYRQAAGQERELVAAITYSGGNTYYADSVKGRFTISRDNANNTVYLQMNSLKPEDTAVYYCAADFLYGAEGNEYWGQGTQVTVSS | high polyreactivity
14 | QVQLVESGGGLVQAGGSLRLSCAASGYIFGYYVMGWYRQAPGKERELVAAITGRGGSTYYADSVKGRFTISRDNAKNTVYLQMISLKPEDTAVYDCAADATSYPYDPWHLYEIWEYYYWGQGTQVTVSS | low polyreactivity
15 | QVQLVESGGGLVQAGGSLRLSCAASGYIFHLYGMGWYRQAPGKERELVARISYRGGSTYYADSVKGRFTISRDNAKNTVYLQMNSLKPEDTAVYYCAKDYYKHYYWGQGTQVTVSS | high polyreactivity
16 | QVQLVESGGGLVQAGGSLRLSCAASGYIFHRYAMGWYRQAPGKERELVAAITWTGARTYYADSVKGRFTISRDNAKNTVYLQMNSLKPEDTAVYYAAPASYSFAKSGYWGQGTQVTVSS | high polyreactivity
17 | QVQLVESGGGLVQAGGSLRLSCAASGYIFIFYAMGWYRQAPGKDRELVAAITDSGGSTYYADSVKGRFTISRDNAQNTVYLQKNSLKPEDTAVYYCADPYYFYRDRYRLDYWGQGTQVTVSS | low polyreactivity
18 | QVQLVESGGGLVQAGGSLRLSCAASGYIFKNYAMGWYRQAPGKERELVAAITRRGASTYYADSVKGRFTITRDNAKNTVYLQMNSLKPEDTAVYYCAAYPWPPGEYDYWGQGTQVTVSS | low polyreactivity
19 | QVQLVESGGGLVQAGGSLRLSCAASGYIFKPNTMGWYRQAPGKERELVAAITRGGRTKYADSVKGRFTISRDNAKNTVYLQMNSLKPEDTAVYYCAAALPVQYRDMYSWGQGTQVTVSS | high polyreactivity
20 | QVQLVESGGGLVQAGGSLRLSCAASGYIFKSNVMGWYRQAPGKERELVAAISWSGGRTYYADSVKGRFTISRDNAKNTDYLQMNSLKPEDTAVYYCAAVGRQSNYYVDYDYWGQGTQVTVSS | high polyreactivity
21 | QVQLVESGGGLVQAGGSLRLSCAASGYIFKSNVMGWYRQAPGKERELVAAISWSGGRTYYADSVKGRFTISRDNAKNTVYFQRNSLKPEDTAVYYCAAVGRQSNYYVDYDYWGQGTQVTVSS | high polyreactivity
22 | QVQLVESGGGLVQAGGSLRLSCAASGYIFKYNAMGWYRQAPGKERELVAAISGRGGSTYYADSVKGRFTISRDNAKNTVYLQMNSLKPEDTAVYYCNADYQARRYNYWGQGTQVTVSS | high polyreactivity

Row | Sequence | polyreactivity (PSR sort gate)
23 | QVQLVESGGGLVQAGGSLRLSCAASGYIFKYYVMGWYIQAPGKERELVAGISSTGGTTYYADSVKGRFTISRDNAKNTVYLQMNSLKPEDSAVYYFAADRVYEASQGYTYFDYDYWGQGTQVTVSS | low polyreactivity
24 | QVQLVESGGGLVQAGGSLRLSCAASGYIFLFYGMGWYRQAPGKERELVASITGTGGNTYYADSVKWRFTISRDNAKNTVYLQMNSLKPEDTAVDYCYADDGYSWGYAYYYSELDYWGQGTQVTVSS | low polyreactivity
25 | QVQLVESGGGLVQAGGSLRLSCAASGYIFLGNAMGWYRQAPGKERELVAAISRSGGSTYYADSVKGRFTISRDNAKNTVYLQMNSLKPEATAVYYCAAGTRIYNSWIRFDYWGQGTQVTVSS | high polyreactivity
26 | QVQLVESGGGLVQAGGSLRLSCAASGYIFLTNAMGWYRPAPGKERELVAAISVSGGRTYYADSVKGRFTISRDNAKNTVYLQMNSLKPEDTAVYYCNTLLTYGYDYWGQGTQVTVSS | low polyreactivity
27 | QVQLVESGGGLVQAGGSLRLSCAASGYIFLTNAMGWYRQAPGKEREWVAAISVSGGRTYYADSVKGRFTISRDNAKNTVYLQMNSLKPEDTAVYYCNTLLTYGYDYWGQGTQVTVSS | low polyreactivity
28 | QVQLVESGGGLVQAGGSLRLSCAASGYIFNYYAMGWYRQAPGKERELVAAISWDGTDTYYADSVKGRFTISRDNAKNTVYLQMNSLKPEDTAVYYCNADYDVYGWRNYWGQGTQVTVSS | low polyreactivity
29 | QVQLVESGGGLVQAGGSLRLSCAASGYIFPKNAMGGYRQAPGKERELVAAITGSGGSTYYADSVKGRFTISRDNAKNTVYLQMISLKPEDTAVYYCAKRSWFEYDYWGQGTQVTVSS | low polyreactivity
30 | QVQLVESGGGLVQAGGSLRLSCAASGYIFPTYGMGWYRQAPGKERELVADITNNAGSTYYADSVKGRFTISRDKAKNTVYLQMKSLKPEDTEVYYCAADAYWPYWPYSYDYWGHGTQVTVSS | low polyreactivity
31 | QVQLVESGGGLVQAGGSLRLSCAASGYIFQPYAMGWYRQAPGKERELVAAIDWTGGRTYYADSVKGRFTISRDNAKNTVYLQMNSLKPEVTAVYYCNADFGYWWDGRRYDYWGQGTQVTVSS | low polyreactivity
32 | QVQLVESGGGLVQAGGSLRLSCAASGYIFRFNAMGWYRQAPGKERELVAVITKSGGSTYYADSVKGRFTISRDNAKNTVYLQMNSLKPEDTAVYDCNADRFYIDYTNTYDSIRDYWGQGTQVTVSS | low polyreactivity
33 | QVQLVESGGGLVQAGGSLRLSCAASGYIFRGYVMGWYRQAPGKERELVAGISRSGSSTYYADSVKGRFTISRDNAKNTVYLQMNSLKPEDTAVYYCAAVRSGIEYGYWGQGTQVTVSS | high polyreactivity
34 | QVQLVESGGGLVQAGGSLRLSCAASGYIFRHYAMGWYRQAPGKERELVAAISGRGGSTYYADSVKGRFTISRDNAKNTVYLQMNSLKPEDTAVYYCAKDRKAVGDFYYWGQGTQVTVSS | high polyreactivity
35 | QVQLVESGGGLVQAGGSLRLSCAASGYIFRIYAMGWYRQAPGKERELVARISSGGGTNYADSVKGRFTISRDNAKNTVYLQMNSLKPEDTAVYYCNAGYGYQRGGVFFYRMGYWGQGTQVTVSS | high polyreactivity
36 | QVQLVESGGGLVQAGGSLRLSCAASGYIFRKYAMGWYRQAPGKERELVADISSSGGSTYYADSVKGRFTISRDNAKNTVYLQMNSLKPEDTAVYYCAKDRKSSRRITRMDYWGQGTQVTVSS | high polyreactivity
37 | QVQLVESGGGLVQAGGSLRLSCAASGYIFRYNAMGWYRQAPGTEREFVASINWSGGRTYYADSVKGRFTLSRDNAKNTVYLQMNSLKPEDTAVYYCAAVYYVSLVYGYYVEGSYEYYYWGQGTQVTVSS | high polyreactivity
38 | QVQLVESGGGLVQAGGSLRLSCAASGYIFSGYAMGWYRQAPGKERELVAAISSNGGSTYYADSVKGRFTISRDNAKNTVYLQMISLKPEDTAVYYCNRGLAARVGRGDYWGQGTQVTVSS | low polyreactivity
39 | QVQLVESGGGLVQAGGSLRLSCAASGYIFSRYAMGWYRPAPGKERELVAAITRSGTRTYYADSVKGRFTISRDNAKNTVYLQMNSLKPEDTAVYYCAKQYLYSSGFDYWGQGTQVTVSS | high polyreactivity
40 | QVQLVESGGGLVQAGGSLRLSCAASGYIFSYYAMGWYRQAPGKEREFVAAIRWRGGSTYYADSVKGRFTISRDYAKNTVYLQMNSLKPEDTEVYYCAAGPATSYYWGQGTQVTVSS | high polyreactivity
41 | QVQLVESGGGLVQAGGSLRLSCAASGYIFSYYAMGWYRQAPGKERELVAAINRSGGRTYYADSVKGRFTISRDNAKNTVYLQMNSLKPEDTAVYYCNAYSGLSYRYGYYYWGQGTQVTVSS | high polyreactivity
42 | QVQLVESGGGLVQAGGSLRLSCAASGYIFTEYDMGWSRQAPGKERELVAANSESGGSTYYADSVKGRFTISRDNAKNTVYLQMNSLKPEDTAVYYCAADQYYYWYTHQSIGYDYWGQGTQVTVSS | low polyreactivity
43 | QVQLVESGGGLVQAGGSLRLSCAASGYIFTSYAMGWYRQAPGKERELVATITTGGSTYYADSVKGRFTISRDNAKNTVYFQMNSLKPEDTAVYYCNAVLHGWYDYWGQGTQVTVSS | low polyreactivity
